{
  "source": "patent EP4631972A1",
  "about": "“SITE-SPECIFIC COUPLED PEGYLATED INTERLEUKIN-2 MUTANT WITH RECEPTOR AFFINITY PREFERENCE AND USE THEREOF” (priority 2022, dated 2024)",
  "key": {"[1]": {"experiment": "Pharmacokinetic study in mice, single administration, plasma concentration by ELISA", "details": "1 mg/kg s.c. single administration", "description": "Balb/c mice were purchased, with 4 mice in each group. Each IL-2 mutant to be tested was administered subcutaneously once at a dose of 1 mg/kg. Blood was collected from the orbit at different time points after administration, and the plasma was separated and the plasma drug concentration was detected by ELISA. The main pharmacokinetic parameters were calculated, and C-T curve was plotted."}, "Treg cells": {"test_system": "Treg cells", "experiment": "Pharmacodynamic (PD) study in mice, peripheral Treg cells", "format": "in vivo, Balb/c mice", "details": "1 mg/kg s.c. single administration", "procedure": "In this example, the pharmacodynamics (PD) of each IL-2 mutant obtained in Example 6 was studied in mice after a single administration to mice. SPF grade Balb/c mice were purchased and randomly divided into groups according to body weight, with 3 mice in each group. Drug administration started on the day of grouping. The dosing and grouping information is shown in Table 9, where G1-G5 were administered once, G6 and G7 were administered once a day, for a total of three doses. 30 µl of blood was taken from each group of mice, for PEGylated IL2 mutants and the negative control, blood was collected on day 0 (pre-administration), day 2, 3, 4, 5, 6 and 7 (only for G3, G4 and G5), and for IL2 and IL2-N88R, blood was collected on day 0 (pre-administration), day 1, 2 and 3. The number of each cell subpopulation was measured by flow cytometry. Antibodies against the staining marker used in flow cytometry are shown in Table 10, and the gating settings are shown in Table 11. Table 9 Dosing and grouping table for single-dose PD study in mice"}, "[2]": {"experiment": "Pharmacokinetic study in cynomolgus monkeys", "details": "cynomolgus monkey", "description": "Blood was collected before and after administration (4h, 8h, 24h, 48h, 72h, 120h, 168h, 240h, 336h) in the first cycle and after administration (8h, 24h, 48h, 72h, 120h, 168h, 240h) in the second cycle to detect plasma drug concentration."}, "[3]": {"details": "female, first-cycle dosing 50 µg/kg s.c."}, "[4]": {"details": "female, second-cycle dosing 400 µg/kg s.c."}, "[5]": {"details": "male, first-cycle dosing 50 µg/kg s.c."}, "[6]": {"details": "male, second-cycle dosing 400 µg/kg s.c."}},
  "data": [
    {"molecule": "80K-1PEG-IL2-N88R-N77C: IL-2 mutant N88R, N77C, conjugation site 77, PEG molecular weight 80kD (conjugate) APTSSSTKKTQLQLEHLLLDLQMILNGINNYKNPKLTRMLTFKFYMPKKATELKHLQCLEEELKPLEEVLNLAQSKC(PEG 80 kDa)FHLRPRDLISRINVIVLELKGSETTFMCEYADETATIVEFLNRWITFSQSIISTLT", "values": [
      {"measurement": "AUC inf", "setting": "[1]", "value": "463.63062 ± 37.7282", "unit": "µg·h/mL"},
      {"measurement": "AUClast", "setting": "[1]", "value": "437.8594 ± 41.0906", "unit": "µg·h/mL"},
      {"measurement": "CL", "setting": "[1]", "value": "2.17±0.18"},
      {"measurement": "Cmax", "setting": "[1]", "value": "8418.72 ± 491.4", "unit": "ng/mL"},
      {"measurement": "MRT", "setting": "[1]", "value": "40.08 ± 2.1", "unit": "h"},
      {"measurement": "Tmax", "setting": "[1]", "value": 24, "unit": "h"},
      {"measurement": "mean half-life", "setting": "[1]", "value": 25.23, "unit": "h"},
      {"measurement": "mean residence time (MRT)", "setting": "[1]", "value": 40.08, "unit": "h"},
      {"measurement": "activation peak of Treg proportion, time", "setting": "Treg cells", "value": 6, "unit": "days"},
      {"measurement": "increase in Treg proportion at peak", "setting": "Treg cells", "value": "about 15 fold"},
      {"measurement": "AUC inf", "setting": "[2]; [3]", "value": 186.0556, "unit": "µg·h/mL"},
      {"measurement": "AUClast", "setting": "[2]; [3]", "value": 147.9248, "unit": "µg·h/mL"},
      {"measurement": "CL", "setting": "[2]; [3]", "value": 0.27},
      {"measurement": "Cmax", "setting": "[2]; [3]", "value": 902.5692, "unit": "ng/mL"},
      {"measurement": "MRT", "setting": "[2]; [3]", "value": 122.9092, "unit": "h"},
      {"measurement": "Tmax", "setting": "[2]; [3]", "value": 8, "unit": "h"},
      {"measurement": "AUC inf", "setting": "[2]; [4]", "value": 2286.053, "unit": "µg·h/mL"},
      {"measurement": "AUClast", "setting": "[2]; [4]", "value": 1481.823, "unit": "µg·h/mL"},
      {"measurement": "CL", "setting": "[2]; [4]", "value": 0.17},
      {"measurement": "Cmax", "setting": "[2]; [4]", "value": 8785.158, "unit": "ng/mL"},
      {"measurement": "MRT", "setting": "[2]; [4]", "value": 103.1, "unit": "h"},
      {"measurement": "Tmax", "setting": "[2]; [4]", "value": 8, "unit": "h"},
      {"measurement": "AUC inf", "setting": "[2]; [5]", "value": 278.1948, "unit": "µg·h/mL"},
      {"measurement": "AUClast", "setting": "[2]; [5]", "value": 184.7575, "unit": "µg·h/mL"},
      {"measurement": "CL", "setting": "[2]; [5]", "value": 0.18},
      {"measurement": "Cmax", "setting": "[2]; [5]", "value": 824.4732, "unit": "ng/mL"},
      {"measurement": "MRT", "setting": "[2]; [5]", "value": 142.9087, "unit": "h"},
      {"measurement": "Tmax", "setting": "[2]; [5]", "value": 48, "unit": "h"},
      {"measurement": "AUC inf", "setting": "[2]; [6]", "value": 2635.62, "unit": "µg·h/mL"},
      {"measurement": "AUClast", "setting": "[2]; [6]", "value": 1885.448, "unit": "µg·h/mL"},
      {"measurement": "CL", "setting": "[2]; [6]", "value": 0.15},
      {"measurement": "Cmax", "setting": "[2]; [6]", "value": 11432.93, "unit": "ng/mL"},
      {"measurement": "MRT", "setting": "[2]; [6]", "value": 102.1, "unit": "h"},
      {"measurement": "Tmax", "setting": "[2]; [6]", "value": 48, "unit": "h"}
    ]}
  ]
}
